# In the supplement of paper PMC6757056:
# ± gives the standard deviation of the averaged measurements.
# B1: library; a variant is named by its letters at N, in order (parent)
# chain: GCUGUCACCGAGAAACUGUGAAGUAUAUCUUAAACCUGGGCACUUAAAAGAUAUAUGGAGUUAGUAGUGCAACCUGCUCGGUCUGAUGAGUCCNNNNNNGGACGAAACAGC
# Assays:
# cyclic di-GMP [1] = variants of: B1; experiment: normalized RNA/DNA level without ligand (relative to sTRSVctl = 100) (log10 (% of sTRSVctl)); HEK293T; ligand: cyclic di-GMP (c-di-GMP-II aptamer); higher = less ribozyme self-cleavage, higher mRNA level; settings: reporter: mCherry (pCS4076), ligand present: no
# Procedure, shortened: (§1)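 Library plasmids carrying ribozyme switches linked to mCherry, or to eGFP in some ligand experiments, were transfected into HEK293T at 4 µg per 6-well well, with any ligand added 1 h earlier. Seventy-two hours on, total RNA was extracted with EDTA and reverse-transcribed, amplified, barcoded and sequenced. RNA level was RNA over DNA reads normalized to a spiked-in non-cleaving sequence or to the top sequences, then scaled and log-transformed. The top set was 25 sequences, the transform was ×100 and log10, and sequences needed ≥100 DNA reads.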
# cyclic di-GMP [2] = variants of: B1; experiment: normalized RNA/DNA level with ligand (relative to sTRSVctl = 100) (log10 (% of sTRSVctl)); HEK293T; ligand: cyclic di-GMP (c-di-GMP-II aptamer); ligand concentration (+) RNA-Seq: 1 mM; higher = less ribozyme self-cleavage, higher mRNA level; settings: reporter: mCherry (pCS4076), ligand present: yes
# Procedure, shortened: as §1
Variant,normalized RNA/DNA level without ligand (log10) (cyclic di-GMP [1]),normalized RNA/DNA level with ligand (log10) (cyclic di-GMP [2])
AUCGUC,1.85 ± 0.056,1.92 ± 0.092
AUCGUA,1.511 ± 0.0037,1.72 ± 0.16
AUCGGG,1.67 ± 0.069,1.81 ± 0.12
AUCGGU,1.647 ± 0.0035,1.78 ± 0.066
AUCGGC,1.78 ± 0.033,1.87 ± 0.16
AUCUGA,1.56 ± 0.099,1.71 ± 0.079
AUCUGU,1.731 ± 0.012,1.88 ± 0.15
AUGAGG,1.55 ± 0.044,1.73 ± 0.085
AUGAGC,1.62 ± 0.066,1.8 ± 0.082
GUCUCC,1.82 ± 0.041,1.89 ± 0.15
GUCUCG,1.867 ± 0.0092,1.88 ± 0.073
GUCUCA,1.7 ± 0.035,1.83 ± 0.14
GUCUCU,1.714 ± 0.011,1.86 ± 0.095
UUCGUC,1.76 ± 0.037,1.88 ± 0.058
UUCGUU,1.736 ± 0.0061,1.87 ± 0.14
UUCGUA,1.64 ± 0.021,1.82 ± 0.11
CUCUCG,1.89 ± 0.031,1.96 ± 0.1
CUCUCA,1.57 ± 0.056,1.78 ± 0.098
CUCUCC,1.81 ± 0.029,1.91 ± 0.11
AUGAUA,1.53 ± 0.069,1.71 ± 0.14
AUGAUC,1.65 ± 0.049,1.82 ± 0.087
CUCGUC,1.81 ± 0.032,1.93 ± 0.098
CUCGUG,1.63 ± 0.047,1.82 ± 0.088
CUCGUU,1.762 ± 0.005,1.86 ± 0.1
CUCGUA,1.6 ± 0.025,1.76 ± 0.086
GUCGUC,1.67 ± 0.036,1.78 ± 0.11
GUCGUG,1.62 ± 0.041,1.79 ± 0.1
GUCGUU,1.61 ± 0.017,1.8 ± 0.14
GUCGUA,1.63 ± 0.073,1.78 ± 0.095
